In patent publication US8563314:

Tests used:
Test in all cases: cell_activity
[1] = test system: ZFN 12934 (synthetic); conditions: pair with 12971 or 12972, day 3, K562
[2] = test system: ZFN 25006 (synthetic); conditions: pair with 12942, PBMC, 37C day 3
[3] = test system: ZFN 25036 (synthetic); conditions: pair with 12942, PBMC, 37C day 3; helices printed identical to 25031
[4] = test system: ZFN 25025 (synthetic); conditions: pair with 12942, PBMC, 37C day 3
[5] = test system: ZFN 25032 (synthetic); conditions: pair with 12942, PBMC, 37C day 3
[6] = test system: ZFN 18759 (synthetic); conditions: pair with 12942, PBMC, 37C day 3
[7] = test system: ZFN 25014 (synthetic); conditions: pair with 12942, PBMC, 37C day 3
[8] = test system: ZFN 25028 (synthetic); conditions: pair with 12942, PBMC, 37C day 3
[9] = test system: ZFN 25030 (synthetic); conditions: pair with 12942, PBMC, 37C day 3; F3 printed RPMHUTN
[10] = test system: ZFN 25029 (synthetic); conditions: pair with 12942, PBMC, 37C day 3
[11] = test system: ZFN 25013 (synthetic); conditions: pair with 12942, PBMC, 37C day 3
[12] = test system: ZFN 25016 (synthetic); conditions: pair with 12942, PBMC, 37C day 3
[13] = test system: ZFN 25022 (synthetic); conditions: pair with 12942, PBMC, 37C day 3
[14] = test system: ZFN 25027 (synthetic); conditions: pair with 12942, PBMC, 37C day 3
[15] = test system: ZFN 25012 (synthetic); conditions: pair with 12942, PBMC, 37C day 3
[16] = test system: ZFN 25015 (synthetic); conditions: pair with 12942, PBMC, 37C day 3; helices printed identical to 25014
[17] = test system: ZFN 25031 (synthetic); conditions: pair with 12942, PBMC, 37C day 3
[18] = test system: ZFN 25011 (synthetic); conditions: pair with 12942, PBMC, 37C day 3
[19] = test system: ZFN 25041 (synthetic); conditions: pair with 12942, PBMC, 37C day 3
[20] = test system: ZFN 25010 (synthetic); conditions: pair with 12942, PBMC, 37C day 3
[21] = test system: ZFN 25040 (synthetic); conditions: pair with 12942, PBMC, 37C day 3
[22] = test system: ZFN 25005 (synthetic); conditions: pair with 12942, PBMC, 37C day 3
[23] = test system: ZFN 25023 (synthetic); conditions: pair with 12942, PBMC, 37C day 3
[24] = test system: ZFN 25017 (synthetic); conditions: pair with 12942, PBMC, 37C day 3
[25] = test system: ZFN 25034 (synthetic); conditions: pair with 12942, PBMC, 37C day 3
[26] = test system: ZFN 12942 (synthetic); conditions: pair with 12947, day 3, K562
[27] = test system: ZFN 12971 (synthetic); conditions: pair with 12934, day 3, K562
[28] = test system: ZFN 12972 (synthetic); conditions: pair with 12934, day 3, K562

## GAACACAGGCACGGCTGAGGGGTCCTCC (double strand) [PD1 exon 5 12934 site]
[1]
  activity: 11 % NHEJ

## CAGTCGTCTGGGCGGTGCT (double strand) [PD1 exon 1 18759/250xx site]
[2]
  activity: 2.9 % NHEJ
[3]
  activity: 8.3 % NHEJ
[4]
  activity: 8.8 % NHEJ
[5]
  activity: 6.7 % NHEJ
[6]
  activity: 4.7 % NHEJ
[7]
  activity: 10.7 % NHEJ
[8]
  activity: 4.3 % NHEJ
[9]
  activity: 7.6 % NHEJ
[10]
  activity: 8.1 % NHEJ
[11]
  activity: 3.7 % NHEJ
[12]
  activity: 7.3 % NHEJ
[13]
  activity: 3.6 % NHEJ
[14]
  activity: 6 % NHEJ
[15]
  activity: 5.9 % NHEJ
[16]
  activity: 3.9 % NHEJ
[17]
  activity: 9.4 % NHEJ
[18]
  activity: 3.1 % NHEJ
[19]
  activity: 7.9 % NHEJ
[20]
  activity: 4.9 % NHEJ
[21]
  activity: 6.1 % NHEJ
[22]
  activity: 4.4 % NHEJ
[23]
  activity: 3.1 % NHEJ
[24]
  activity: 7.7 % NHEJ
[25]
  activity: 4.9 % NHEJ

## CCAGGGCGCCTGTGGGATCTGCATGCCT (double strand) [PD1 exon 1 12942 site]
[26]
  activity: 10 % NHEJ

## CTGTGGACTATGGGGAGCTGGATTTCCA (double strand) [PD1 exon 5 12971/12972 site]
[27]
  activity: 11 % NHEJ
[28]
  activity: 11 % NHEJ
